Measured values taken from IntAct's records for PubMed 18223036.

B1: Protein pleiotropic regulatory locus 1 (Arabidopsis thaliana (Mouse-ear cress)), Q42384 (parent)
chain: MPAPTTEIEPIEAQSLKKLSLKSLKRSLELFSPVHGQFPPPDPEAKQIRLSHKMKVAFGGVEPVVSQPPRQPDRINEQPGPSNALSLAAPEGSKSTQKGATESAIVVGPTLLRPILPKGLNYTGSSGKSTTIIPANVSSYQRNLSTAALMERIPSRWPRPEWHAPWKNYRVIQGHLGWVRSVAFDPSNEWFCTGSADRTIKIWDVATGVLKLTLTGHIEQVRGLAVSNRHTYMFSAGDDKQVKCWDLEQNKVIRSYHGHLSGVYCLALHPTLDVLLTGGRDSVCRVWDIRTKMQIFALSGHDNTVCSVFTRPTDPQVVTGSHDTTIKFWDLRYGKTMSTLTHHKKSVRAMTLHPKENAFASASADNTKKFSLPKGEFCHNMLSQQKTIINAMAVNEDGVMVTGGDNGSIWFWDWKSGHSFQQSETIVQPGSLESEAGIYAACYDNTGSRLVTCEADKTIKMWKEDENATPETHPINFKPPKEIRRF
partner: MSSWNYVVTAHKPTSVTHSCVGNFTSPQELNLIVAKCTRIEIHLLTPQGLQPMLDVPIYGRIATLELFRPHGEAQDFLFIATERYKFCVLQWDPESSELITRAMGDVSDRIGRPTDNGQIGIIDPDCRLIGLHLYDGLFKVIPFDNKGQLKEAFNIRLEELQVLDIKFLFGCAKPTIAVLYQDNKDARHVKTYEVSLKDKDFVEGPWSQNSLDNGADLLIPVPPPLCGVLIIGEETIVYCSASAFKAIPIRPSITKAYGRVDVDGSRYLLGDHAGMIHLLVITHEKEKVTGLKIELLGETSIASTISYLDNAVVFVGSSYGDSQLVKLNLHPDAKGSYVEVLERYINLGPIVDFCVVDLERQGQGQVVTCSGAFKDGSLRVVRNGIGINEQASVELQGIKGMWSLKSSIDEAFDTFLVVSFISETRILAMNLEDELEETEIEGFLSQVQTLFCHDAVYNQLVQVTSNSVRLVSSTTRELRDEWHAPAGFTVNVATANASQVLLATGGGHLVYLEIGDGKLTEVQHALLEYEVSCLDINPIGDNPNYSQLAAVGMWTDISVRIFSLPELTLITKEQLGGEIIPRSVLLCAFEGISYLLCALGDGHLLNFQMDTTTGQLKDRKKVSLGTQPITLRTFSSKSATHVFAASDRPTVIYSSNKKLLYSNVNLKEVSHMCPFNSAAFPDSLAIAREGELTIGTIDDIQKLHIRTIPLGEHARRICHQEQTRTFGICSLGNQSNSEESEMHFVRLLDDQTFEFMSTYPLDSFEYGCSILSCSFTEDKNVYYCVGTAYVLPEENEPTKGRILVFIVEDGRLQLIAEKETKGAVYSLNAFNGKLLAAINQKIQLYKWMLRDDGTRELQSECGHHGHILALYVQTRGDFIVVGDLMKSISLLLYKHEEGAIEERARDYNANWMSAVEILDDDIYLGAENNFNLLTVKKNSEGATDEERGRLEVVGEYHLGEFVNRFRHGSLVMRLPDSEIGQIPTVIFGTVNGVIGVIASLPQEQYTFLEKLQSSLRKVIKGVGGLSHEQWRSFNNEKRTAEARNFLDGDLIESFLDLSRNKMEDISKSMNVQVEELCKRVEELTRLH

Variants of: B1
Conditions: with ddb1a_arath DDB1A

effect of a mutation on the interaction | Variant
decreasing interaction | R290H;R332H
